The target of one assay is T1, OGT (Homo sapiens, UniProt O15294).
T1 sequence (O15294 1-1046): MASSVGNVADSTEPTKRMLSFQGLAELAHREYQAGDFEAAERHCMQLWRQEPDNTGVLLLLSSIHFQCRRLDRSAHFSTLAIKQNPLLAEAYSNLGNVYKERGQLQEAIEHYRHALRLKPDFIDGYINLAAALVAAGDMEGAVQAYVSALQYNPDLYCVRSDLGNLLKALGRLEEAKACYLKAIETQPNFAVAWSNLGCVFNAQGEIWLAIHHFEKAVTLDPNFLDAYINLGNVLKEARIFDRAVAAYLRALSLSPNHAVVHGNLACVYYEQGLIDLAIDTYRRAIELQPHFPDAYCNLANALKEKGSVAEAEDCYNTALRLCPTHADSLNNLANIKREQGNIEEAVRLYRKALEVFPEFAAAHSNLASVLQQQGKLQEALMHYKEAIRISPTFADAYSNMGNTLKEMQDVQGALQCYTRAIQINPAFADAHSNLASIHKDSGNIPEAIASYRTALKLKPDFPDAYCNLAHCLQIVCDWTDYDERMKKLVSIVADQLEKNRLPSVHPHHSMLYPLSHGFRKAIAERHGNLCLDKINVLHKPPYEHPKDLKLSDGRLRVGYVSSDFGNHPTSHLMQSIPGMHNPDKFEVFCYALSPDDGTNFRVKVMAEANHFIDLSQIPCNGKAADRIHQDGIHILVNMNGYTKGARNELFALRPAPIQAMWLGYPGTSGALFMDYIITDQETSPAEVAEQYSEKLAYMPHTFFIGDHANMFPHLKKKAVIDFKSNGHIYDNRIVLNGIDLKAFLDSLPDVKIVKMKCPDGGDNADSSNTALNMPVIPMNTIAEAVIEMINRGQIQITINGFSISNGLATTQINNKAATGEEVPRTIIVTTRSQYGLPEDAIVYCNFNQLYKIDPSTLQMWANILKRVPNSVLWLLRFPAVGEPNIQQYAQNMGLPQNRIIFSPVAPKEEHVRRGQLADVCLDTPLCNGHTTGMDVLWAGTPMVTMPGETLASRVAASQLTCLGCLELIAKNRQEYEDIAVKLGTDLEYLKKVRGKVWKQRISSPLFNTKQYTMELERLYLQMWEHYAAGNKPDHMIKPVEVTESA
Description: Competitive fluorescence polarization. To be noted: FP competition with 5-FAM-SMG9 for OGT binding, n=3.

The target of assay [1] is 5-FAM-SMG9 peptide (human) (UniProt Q9H0W8). Description: fluorescence polarisation.

Non-standard residues stand in square brackets, D forms with d. No end group written: not given here. pY = N[C@@H](Cc1ccc(OP(=O)(O)O)cc1)C(=O)O

On to “SMG9 pY147: phosphorylated SMG9 peptide (pY147) (QRPTQPV[pY]QIQNRGMG)”, for which, in the assay with OGT, the “peptide binding to OGT” value was “disrupted peptide binding, to a similar degree as Y147F”.
On to OGT I734R (enzyme), for which the fold shift of EC50 against WT OGT in assay [1] was more than 10 fold.
The same measure, in the same setting: under OGT N791A (enzyme) stands more than 10 fold; under OGT F723E (enzyme), more than 10 fold.
